Assay results reported in patent US9429584B2, “Antibody against insoluble fibrin” (National Cancer Center, priority 2013, dated 2016).
One block for each molecule: values may come before it.

Biological target: T1, insoluble fibrin (Homo sapiens, UniProt P02675+P02679)
T1 sequence (P02675 45-491 limits assumed): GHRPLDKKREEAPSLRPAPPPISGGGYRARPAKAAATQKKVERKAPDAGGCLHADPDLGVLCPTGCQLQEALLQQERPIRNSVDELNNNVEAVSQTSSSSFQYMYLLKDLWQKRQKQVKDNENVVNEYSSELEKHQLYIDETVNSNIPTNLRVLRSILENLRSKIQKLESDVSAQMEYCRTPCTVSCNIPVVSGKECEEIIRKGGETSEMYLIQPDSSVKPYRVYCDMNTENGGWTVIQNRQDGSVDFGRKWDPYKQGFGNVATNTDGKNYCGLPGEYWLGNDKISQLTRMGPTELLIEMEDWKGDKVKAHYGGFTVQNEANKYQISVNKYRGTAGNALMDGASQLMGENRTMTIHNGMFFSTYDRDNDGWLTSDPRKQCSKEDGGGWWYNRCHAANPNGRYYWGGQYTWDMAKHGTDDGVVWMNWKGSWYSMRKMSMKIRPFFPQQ
T1 sequence (P02679 27-453): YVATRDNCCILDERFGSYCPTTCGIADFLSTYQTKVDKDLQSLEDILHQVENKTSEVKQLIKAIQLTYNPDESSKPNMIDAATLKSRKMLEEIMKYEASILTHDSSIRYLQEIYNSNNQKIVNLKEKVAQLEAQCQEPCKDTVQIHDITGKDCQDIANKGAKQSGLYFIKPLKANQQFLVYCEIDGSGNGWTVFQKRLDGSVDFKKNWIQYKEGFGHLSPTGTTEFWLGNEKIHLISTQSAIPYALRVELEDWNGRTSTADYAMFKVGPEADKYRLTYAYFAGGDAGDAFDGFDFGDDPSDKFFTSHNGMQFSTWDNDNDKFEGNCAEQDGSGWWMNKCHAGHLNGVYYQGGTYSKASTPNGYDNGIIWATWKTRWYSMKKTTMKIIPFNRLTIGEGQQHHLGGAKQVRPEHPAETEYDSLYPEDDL
Experiment: ELISA method of Example 2, fibrin plate
Format: binding
Conditions: antibody 10 μg/mL
Experimental: Each of the antibody solutions (100 μL each) at 10 μg/mL was added to the fibrin plate and the fibrinogen plate, and allowed to stand at room temperature for 1 hour. After washing with TBS-T, Bethyl Anti-Human IgG-HRP (×1000 dilution) or Bethyl Anti-Mouse IgG-HRP (×10000 dilution) was added as a secondary antibody. Then, after washing with TBS-T, colorimetry was conducted with OPD for 10 minutes, and measurement was conducted at an absorption wavelength of 492 nm.

- affinity for insoluble fibrin (absorbance at 492 nm) relative to that of the 102-10 antibody: 16 times
- ratio of the affinity for insoluble fibrin to the affinity for fibrinogen (absorbance at 492 nm): 25 times
B1: 34-105 antibody: monoclonal anti-γ chain antibody produced by hybridoma 34-105; L chain variable region SEQ ID NO: 3, H chain variable region SEQ ID NO: 7 (antibody, listed as Mus musculus, V domains shown)
VH: EVKLQESGGGLVKPGGSLKLSCAASGFTFSSYAMSWVRQTPEKRLEWVAAISSGGTTYYPDSVKGRFTISRDNARNILYLQMSSLRSEDTAMYYCVRGGTIGAYWGQGTLVTVSA
VL: DIVITQSPASLAVSLGQRATISYRASKSVSTSGYSYMHWNQQKPGQPPRLLIYLVSNLESGVPARFSGSGSGTDFTLNIHPVEEEDAATYYCQHIRELTRSEGGPSWK
modifications: SITE (1)..(115) Variable Region of Heavy Chain (34-105); SITE (1)..(108) Variable Region of Light Chain(34-105)

- affinity for insoluble fibrin (absorbance at 492 nm) relative to that of the 102-10 antibody: 12 times
B2: Fib-0355 antibody: monoclonal anti-β chain antibody produced by hybridoma Fib-0355; L chain variable region SEQ ID NO: 11, H chain variable region SEQ ID NO: 15 (antibody, listed as Mus musculus, V domains shown)
VH: GPELKKPGETVKISCKASGYTFTNYGMNWVKQAPGKGLKWMGWINTNTGEPTYAEEFKGRFAFSLETSASTAYLQINNLKNEDTATYFCARLLDYWGQGTTLTVSS
VL: PSSLAVSAGEKVTMSCKSSQSVLYSSNQKNYLAWYQQKPGQSPKLLIYWASTRESGVPDRFTGSGSGTDFTLTISSVQAEDLAVYYCQQYLSSYTFGG
modifications: SITE (1)..(106) Variable Region of Heavy Chain (Fib-0355); SITE (1)..(98) Variable Region of Light Chain(Fib-0355)
